Data: patent publication US20240336927

Tested on: IgG SLE S6 (anti-BC autoantibody, polyclonal) (human)
Test: EMSA
Conditions: reactivity relative to BC200 RNA

U4 snRNA
binding signal: < 5%
